From US20010029022A1 come the findings set out here.

The target of the first experiment is CDK2 kinase complex (cyclin not given) (UniProt P24941). The experiment in a line: cell-based or functional assay.
For “GST-16E7 (16-38) (from UniProt P08515 1-218; P03129 16-38)”, the induced kinase activity, percent of that by full length E7 was found to be 53%.
For “GST-16E7(1-15) (from UniProt P03129 1-15)”, the relative kinase activity compared to full length E7 is 15%.
Take “GST-16E7(1-27) (from UniProt P03129 1-27)”: the CDK2 activation, percent of that of full length E7 (one experiment) was determined as 28.6% and the CDK2 activation, percent of that of full length E7 (repeat experiment) was found to be 52%.
Take “GST-16E7(1-38) (from UniProt P03129 1-38)”: the relative kinase activity compared to activity in the presence of full length E7 turned out to be 72%.
Still for that read-out and setting: the value for “GST-16E7(1-48) (from UniProt P03129 1-48)” was 73.2%.
Still for that read-out and setting: the value for “GST-16E7(1-69) (from UniProt P03129 1-69)” was 82.5%; that for “GST-16E7(1-87) (from UniProt P03129 1-87)” was 76.7%.
In turn, “GST-E7 (20-48) (from UniProt P03129 20-48)” gave an induced kinase activity, percent of that by full length E7 of 33%.
In turn, “GST-HPV16 E7 ?9-13 (from UniProt P03129 1-8; P03129 14-98)” had a % Control Activation of CDK2 of 90%.
On the same count and under the same terms, the value for “GST-HPV16 E7 ?9-13, ?A34-37 (from UniProt P03129 1-8; P03129 14-33; P03129 38-98)” was 72%.
For “GST-HPV16 E7 ?12; ?24, 26 (from UniProt P03129 1-98)”, the % Control Activation of CDK2, Exp. 1 worked out at 85.2% and the % Control Activation of CDK2, Exp. 2 amounted to 93.5%.
As to “GST-HPV16 E7 ?12; ?24, 26; ?31, 32 (from UniProt P03129 1-98)”, the % Control Activation of CDK2, Exp. 2 was 83.1%.
Regarding “GST-HPV16 E7 ?13-15 (from UniProt P03129 1-12; P03129 16-98)”, the % Control Activation of CDK2 was determined as 76%.
As for “GST-HPV16 E7 ?22-26 (from UniProt P03129 1-21; P03129 27-98)”, the % Control Activation of CDK2 was 85%.
Still for that read-out and setting: in the case of “GST-HPV16 E7 ?22-26, ?31-37 (from UniProt P03129 1-21; P03129 27-30; P03129 38-98)” it was 72%.
“GST-HPV16 E7 ?24, 26; ?31, 32 (from UniProt P03129 1-98)” yielded a % Control Activation of CDK2, Exp. 1 of 88.2% and a % Control Activation of CDK2, Exp. 2 of 95.6%.
“GST-HPV16 E7 ?24, 26; ?31, 32; ?91 (from UniProt P03129 1-98)”: the % Control Activation of CDK2, Exp. 2 is 70.6%.
Substance “GST-HPV16 E7 ?24, 26; ?91 (from UniProt P03129 1-98)” registered a % Control Activation of CDK2, Exp. 1 of 69.4% and a % Control Activation of CDK2, Exp. 2 of 86.4%.
In the case of “GST-HPV16 E7 ?31-37 (from UniProt P03129 1-30; P03129 38-98)”, the % Control Activation of CDK2 is 80%.
“GST-HPV16 E7 ?34-37 (from UniProt P03129 1-33; P03129 38-98)” yielded a % Control Activation of CDK2 of 80%.
In turn, “GST-HPV16 E7 C24, E26→S24, D26 (from UniProt P03129 1-98)” came in with a % Control Activation of CDK2, Exp. 1 of 86.7% and a % Control Activation of CDK2, Exp. 2 of 81.3%.
For “GST-HPV16 E7 C91→W91 (from UniProt P03129 1-98)” the same measures were 81.7% and 78.7%.
“GST-HPV16 E7 M12→L12 (from UniProt P03129 1-98)” came in with a % Control Activation of CDK2, Exp. 1 of 96.7%.
Same read-out and setting: in the case of “GST-HPV16 E7 S31, S32→G31, G32 (from UniProt P03129 1-98)” it was 77.1%.

The target in the next experiment is cyclin A/CDK2 complex (UniProt P20248). The experiment in a line: cell-based or functional assay.
For “GST-HPV16-E7(9-98) (from UniProt P03129 9-98)”, the activation of cyclinA/CDK2, percent of full length E7 came out at 64%.
On the same count and under the same terms, in the case of “GST-HPV16-E7(16-98) (from UniProt P03129 16-98)” it was 53%.
With “GST-HPV16-E7(39-98) (from UniProt P03129 39-98)”, the activation of cyclinA/CDK2, percent of full length E7 (repeat experiment) was found to be 18% and the activation of cyclinA/CDK2, percent of full length GST-HPV 16 E7 is 28.6%.
